The source of these data is the DeepSol protein solubility set.

The series in a line: soluble on expression in E. coli; label from the status in PepcDB or PDB records.
As for “MGSDKIHHHHHHMKVDYHIHLEEGPYSIGWLAKINESLQHYEPLKEEKHSMEWLVKIQERLQRRVNEGPFTTKWIDLYLEEALRKGIKEVGIVDHLYRFYEAKEYYEKYVDISDSGLGRLQKEWLDQVRVASLHDFTKAIEEAKERWSKRGVTLKLGIEADYFIGGEQQLQSLLALGDFDYVIGSVHFLNGWGFDNPDTKEYFKEHDLYALYDTFFKTVECAVRSELFDIIAHLDNIKVFNYRLDENEQISYYKKIARALVETNTATEINAGLYYRYPVREMCPSPLYLQVLAKHEVPITLSSDAHYPNDLGKYVEENIKTLRNHDIAHLATFTKRVRTMRLLEEVTISK”, the “soluble on expression in E. coli” value was “not soluble”.

On to “MGSDKIHHHHHHMTAKTFELGPGYTISRVIRGGWQLAGGHGAIDRSQAVTDLIATFDAGIWTYDCADIYTGVEELIGAARLRLASERGLDVAAKMKVHTKLVPDLERLATISRDYIRGIVEQSLRRLKTERLDLVQFHWWDYDQPRYVEAMGWLDELRREGKVRNLGTTNFDTPRLAEILAAGIPLVSQQLQYSVLDQRPAHSLAELAAKNGVSFLCYGSVAGGFLSDKWLGVAEPATPLENRSLVKYKLIIDDFGGWDLFQQLLQALKAVGDRHGVDIATIASAWVLKQPRVAAVIVGARNQAHALANARIMDVALDADDRAKIAAVIAQSQGPLGDVYTLERDRHGRHGSIMHYNLNAGRT”, for which the “soluble on expression in E. coli” value was “not soluble”.

For “GSGATSAAGKPQETFLDFNESPYGPSAKARAAMQRAAALCGRYDYDAQDALVGLFAKQNGIPAECVHAYCGSRQPLQYAVAAFTGKERGLVIADPSYDSVVGAAQAQGAKVAAVPLDAEAAHDIERMLAAAQRDAGLIYICNPNNPTGTLTPHERIVRAIERKPERSVVLVDEAYIHFSDAPSVVGLAVQRQDVLVLRTFSKLYGMAGARLGLAIGHPQLLARLERFGGHNVVPSPTAHAGLESLRDDDLVPRRKQQNAEVRERTIAWLRQQGFRCTASQSNCFMVDMRRPAELVIAELEKQRVHVGRPWASWPNWVRVTVGSEEEMQAFR”, the “soluble on expression in E. coli” value was “not soluble”.

“MHPRKIEIVTAAVTCFLERGYHQTGIRDIARQAGVSLGNLYNHFAGKEAVLAFIAELEGRELAAFVDMLSDPEEPYAALERFIWAYAAYAARPENALLGLELMAEALRNPTISQVFDGNRHQLVAALMGCLERGVSTGRFRHLDDTRALALMILDTLEGQGLRQLDRKTPDPDAVRTLCAVLTTGLLARDQSPPPVPCNTPCSSA”: the “soluble on expression in E. coli” value was “not soluble”.

Turning to “MSLTARSVVLSVLLGAHPAWATASELIQLTADFGIKETTLRVALTRMVGAGDLVRSADGYRLSDRLLARQRRQDEAMRPRTRAWHGNWHMLIVTSIGTDARTRAALRTCMHHKRFGELREGVWMRPDNLDLDLESDVAARVRMLTARDEAPADLAGQLWDLSGWTEAGHRLLGDMAAATDMPGRFVVAAAMVRHLLTDPMLPAELLPADWPGAGLRAAYHDFATAMAKRRDATQLLEVTEGHHHHHH”, the “soluble on expression in E. coli” value is given as “soluble”.

In the case of “MSLKAINFINWKYIGLTGCLVASLLTACGDDETGPEVVTPLEPKLEIVNEASTFSFSSAGNSAQVLTFNANQDWHIVLDDSEGVDNSWVVLFEREGTAGEGNKVWVAAAENVEPDARRANFSLVSGGFKYDFVIYQAQKDAVVITDPKAYENLDAGEHIISVEFGINTGEYKTSFLYSGDTGWIMPTDERPAGEPETRAMENHTLYFKVLPNQKFDIRRGTIEISSKDNDNVKATMNIFQTGLPKPVITVDNKEMFTNLASKEDSILLKYKATNTNGPRDLTIDIDKNDQDWISFKPAIDAKGDSTFLVSVKENTGGERTATIALCAAADKKVREEFIVTQAQASDVELVITNKNDFRTSLDKLGSAATVKYSVQSTLTDPKNEILVDIVYPEESGYTAENGWLHMANNSMPERVIFTYDVNKVLRERQATVYIYRKGYENKKDYMVIRQAAATQIEIPAPGGLTNVLQSLIDDEIYKDWESITSLELKGRLNDTDLNLLKNMMTAGKGYNLKTLDMTEVENETLKNGVFNGCNLLENISFPTGLQYVPREACRNCTKLRTVVVNEGPTYIGRHAFGNSVVNEAWFPSTMTYVYGYIFDNVTALKTLHLKSLPFQCKEVARSDADEGATQPTTWCTVFKTWPSTVYVPMEYLEYYKNPDPKHVVSMHFQDLLNTLTSESEEWTKGPKVQQPYLKSNSALKSNFTWGSSATTIMGESEGHHHHHH”, the “soluble on expression in E. coli” value is “soluble”.

Turning to “MPEPTADAPTVPKARSCPFLPPDGIADIRAAAPVTRATFTSGHEAWLVTGYEEVRALLRDSSFSVQVPHALHTQDGVVTQKPGRGSLLWQDEPEHTSDRKLLAKEFTVRRMQALRPNIQRIVDEHLDAIEARGGPVDLVKTFANAVPSMVISDLFGVPVERRAEFQDIAEAMMRVDQDAAATEAAGMRLGGLLYQLVQERRANPGDDLISALITTEDPDGVVDDMFLMNAAGTLLIAAHDTTACMIGLGTALLLDSPDQLALLREDPSLVGNAVEELLRYLTIGQFGGERVATRDVELGGVRIAKGEQVVAHVLAADFDPAFVEEPERFDITRRPAPHLAFGFGAHQCIGQQLARIELQIVFETLFRRLPGLRLAKPVEELRFRHDIVFYGVHELPVTWHHHH”, the “soluble on expression in E. coli” value is recorded as “soluble”.

“MQQRMGAMPMAVLYPQSYLPHSAVPCPAPGYGNMFSGYGAAPVMMMVAGNAPYPVNAHFGHSATPMYFAMDPANSAAPMAVVADAASVCATPKAKLAHSGSGNSLSTQSCCSGGETPSLLSRSAASSTVKQRPHHDVNVWGFALVDQLHPSLQRIPVPLSCLHEPTMGISLYDNNVMSSSTRPCKSSVCLLHAQGLGCAEGSRCRCFHVSSAYLMQCRATSESLCCALHNCYYSQEMLGANCAPHVSGRCYALSLDDASKFPQDGEKPYLINLSLLNLSLTVGLETLPCVNSVYVVSWKKHVCRLSMDGLCKWTKDCGHIHVCRQLTRFLQDAETLSIVKTLQERTRPKSSAELYRDIILSENTLRYVRSVAALSLVAALLEAGDVEALKTLARAKCALLPSQSEALQKLGIALSGSDSTRSVTVSPKLLALLTPKGTN”: the “soluble on expression in E. coli” value was “not soluble”.

On to “MAHHHHHHSLTQQYLTVTALTKYLKRKFDADPYLGRVYLTGEISNFRFRANAHQYFSLKDDHAKISAIMFKSAFQKLKFQPKEGMKVMVVGRISLYENSGSYQIYIEHMEPDGVGALYQALAELREKLGKEGLFEGPKQQLPRYPKRIAVVTSPSGAVIRDIITTVKRRYPIAQLVLFPTLVQGEQAADDIVRNIQRADAQSDFDTMIIGRGGGSIEDLWPFNEEKVARAIHAATTPIISSVGHETDVTIADMVADVRAATPTAAAELAVPVLNEELLRISERRSRLEQSFLYLLQQRTERFQRLQNSYVFKQPERLYEGQTIKLDRMTQRLFQAMTTIHHQKQRQAQGIIAQLQQQTPKGQLRESQQQLAFLQRNLQTQMTQLFLNKQKQFTSAVQQLDLLSPLKIMGRGYSYTTKEDRVVKTVTELQPADQLTIHYADGTVQANVETITAKKEEFEG”, for which the “soluble on expression in E. coli” value is “soluble”.

“MPKKAGATSKGKNQTKEPETAPPAAGPVATDPKGFVTIAIHAKPGSRQNAVTDLSTEAVGVAIAAPPSEGEANAELCRYLSKVLDLRKSDVVLDKGGKSREKVVKLLASTTPEEVLEKLKTEAEKK”: the “soluble on expression in E. coli” value is recorded as “soluble”.

Take “VRRLLIVHHTPSPHMQEMFEAVVSGATDPEIEGVEVVRRPALTVSPIEMLEADGYLLGTPANLGYISGALKHAFDVCYYLCLDTTRGRSFGAYIHGNEGTEGAERAVDAITTGLGWVQAAETVVVMGKPSKADIEACWNLGATVAAQLMG”: the “soluble on expression in E. coli” value is recorded as “soluble”.
